Results taken from doi:10.1101/597906.
Read-outs that look alike come from different tables or passages of the source.

Tests used:
[1] = target: polymerized microtubules; assay: single-molecule TIRF microscopy motility assay
[2] = target: polymerized microtubules; assay: single-molecule TIRF microscopy motility assay; remark: listed apart in the source

| Substance | landing rate (molecules bound to microtubules per length and time) [1] | landing rate (molecules bound to microtubules per length and time) [2] |
| --- | --- | --- |
| full-length human KIF1A fused to a C-terminal mScarlet-strepII tag (from UniProt Q12756 1-1690) (natural protein) | 0.012 /μm/sec | 0.002 /μm/sec |
| full-length human KIF1A(A255V) fused to a C-terminal mScarlet-strepII tag (from UniProt Q12756 1-1690) (natural protein) |  | 0.024 /μm/sec |
| full-length human KIF1A(R350G) fused to a C-terminal mScarlet-strepII tag (from UniProt Q12756 1-1690) (natural protein) |  | 0.025 /μm/sec |
| full-length human KIF1A(V8M) fused to a C-terminal mScarlet-strepII tag (from UniProt Q12756 1-1690) (natural protein) |  | 0.039 /μm/sec |
